Consider 16 molecules from patent publication US20170355766A1 (Xencor, published 2017).

Positions count from the first letter of the chain named. Names may count otherwise.

Common to all, as to experiment: SPR (Biacore)
For orientation: SPR reads the build-up and loss of mass on a sensor chip optically.

For one experiment, the target named is T1, FcγRIIaR (human, UniProt P12318).
T1 construct: recombinant receptor protein with 6xHis and GST tags; also called R131 FcγRIIa
T1 sequence (receptor, looked up): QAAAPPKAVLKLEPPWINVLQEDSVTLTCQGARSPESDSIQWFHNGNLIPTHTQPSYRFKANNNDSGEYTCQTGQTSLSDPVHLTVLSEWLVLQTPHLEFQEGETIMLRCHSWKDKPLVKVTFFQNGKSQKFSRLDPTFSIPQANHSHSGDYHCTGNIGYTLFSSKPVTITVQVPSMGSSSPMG

The target of experiment [1] is T2, human V158 FcγRIIIa receptor protein (6xHis and GST tags) (human, UniProt P08637 17-208, limits assumed).
T2 construct: also called VIIIa

Experiment [2] has as its target T3, human FcγRI receptor protein (R&D Systems) (human, UniProt P12314 16-288).
T3 construct: also called CD64

The target of experiment [3] is T4, human H131 FcγRIIa receptor protein (6xHis and GST tags) (human, UniProt P12318 34-217, limits assumed).
T4 construct: also called HIIa
T4 sequence (looked up): T1 sequence (receptor, looked up) with R134H

Experiment [4] concerns the target T5, human FcγRIIb receptor protein (R&D Systems) (human, UniProt P31994 46-217).
T5 construct: Analyte injected over antibodies captured on a protein A/G chip (Biacore); also called CD32b
T5 sequence (looked up): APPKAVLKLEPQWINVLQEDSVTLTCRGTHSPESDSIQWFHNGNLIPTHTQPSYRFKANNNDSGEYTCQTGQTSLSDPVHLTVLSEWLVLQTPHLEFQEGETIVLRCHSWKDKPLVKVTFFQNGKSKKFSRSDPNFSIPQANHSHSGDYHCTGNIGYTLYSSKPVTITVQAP

T3 sequence (P12314 16-288 limits assumed): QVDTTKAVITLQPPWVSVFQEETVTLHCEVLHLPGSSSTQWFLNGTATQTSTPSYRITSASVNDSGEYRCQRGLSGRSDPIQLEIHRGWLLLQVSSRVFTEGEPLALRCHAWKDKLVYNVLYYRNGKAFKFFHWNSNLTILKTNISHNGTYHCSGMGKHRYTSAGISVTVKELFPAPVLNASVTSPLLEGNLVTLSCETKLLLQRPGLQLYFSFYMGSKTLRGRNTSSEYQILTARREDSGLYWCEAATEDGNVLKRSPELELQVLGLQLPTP

B1: A327D (antibody, human IgG1, kappa)
heavy: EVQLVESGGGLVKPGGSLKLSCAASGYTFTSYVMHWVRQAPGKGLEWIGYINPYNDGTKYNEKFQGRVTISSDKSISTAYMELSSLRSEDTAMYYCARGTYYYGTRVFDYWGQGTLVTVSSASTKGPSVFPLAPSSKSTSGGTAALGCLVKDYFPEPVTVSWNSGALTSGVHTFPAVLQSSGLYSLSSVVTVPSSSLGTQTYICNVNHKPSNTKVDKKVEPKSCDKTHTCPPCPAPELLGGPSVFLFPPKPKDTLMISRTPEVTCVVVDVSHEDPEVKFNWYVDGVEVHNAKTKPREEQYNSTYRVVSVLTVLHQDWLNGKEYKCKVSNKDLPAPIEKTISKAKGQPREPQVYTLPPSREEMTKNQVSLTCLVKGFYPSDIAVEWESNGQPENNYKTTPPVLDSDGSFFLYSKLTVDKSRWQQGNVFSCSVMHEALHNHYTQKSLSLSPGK
light: DIVMTQSPATLSLSPGERATLSCRSSKSLQNVNGNTYLYWFQQKPGQSPQLLIYRMSNLNSGVPDRFSGSGSGTEFTLTISSLEPEDFAVYYCMQHLEYPITFGAGTKLEIKRTVAAPSVFIFPPSDEQLKSGTASVVCLLNNFYPREAKVQWKVDNALQSGNSQESVTEQDSKDSTYSLSSTLTLSKADYEKHKVYACEVTHQGLSSPVTKSFNRGEC
notes: HuAM4G7 IgG1 Fc variant
For B1, the “Fold FcγRIIaR” value with FcγRIIaR came to 1.6 fold. For the same molecule, in experiment [1], the “Fold FcγRIIIaV” value turned out to be 0.398 fold. Also, the “Fold FcγRI” value in experiment [2] is 2.06 fold. For the same molecule, the “Fold FcγRIIaH” value in experiment [3] came to 0.733 fold. Moreover, in experiment [4], the “Fold FcγRIIb” value was 1.33 fold.

B2: S267E/L328Y (antibody, human IgG1, kappa)
heavy: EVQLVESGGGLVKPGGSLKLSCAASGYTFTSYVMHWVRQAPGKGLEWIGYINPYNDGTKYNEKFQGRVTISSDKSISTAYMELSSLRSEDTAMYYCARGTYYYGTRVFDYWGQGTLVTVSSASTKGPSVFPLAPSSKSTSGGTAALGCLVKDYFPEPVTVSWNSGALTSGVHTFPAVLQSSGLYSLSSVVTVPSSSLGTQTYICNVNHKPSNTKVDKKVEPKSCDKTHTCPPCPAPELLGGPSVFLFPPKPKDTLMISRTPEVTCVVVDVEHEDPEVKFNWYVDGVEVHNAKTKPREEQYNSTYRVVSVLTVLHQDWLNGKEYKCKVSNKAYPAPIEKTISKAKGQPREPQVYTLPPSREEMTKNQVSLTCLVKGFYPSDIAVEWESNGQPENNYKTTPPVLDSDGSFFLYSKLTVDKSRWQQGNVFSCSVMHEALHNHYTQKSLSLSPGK
light: B1 light
notes: HuAM4G7 IgG1 Fc variant
For B2, in the experiment with FcγRIIaR, the “Fold FcγRIIaR” value was 122 fold. In addition, the binding result in experiment [1] is on record as “no binding”. Moreover, the “Fold FcγRI” value in experiment [2] came to 0.224 fold. Further, in experiment [4], the “Fold FcγRIIb” value came to 43.1 fold.

B3: G236D/S267E/H268E (antibody, human IgG1, kappa)
heavy: EVQLVESGGGLVKPGGSLKLSCAASGYTFTSYVMHWVRQAPGKGLEWIGYINPYNDGTKYNEKFQGRVTISSDKSISTAYMELSSLRSEDTAMYYCARGTYYYGTRVFDYWGQGTLVTVSSASTKGPSVFPLAPSSKSTSGGTAALGCLVKDYFPEPVTVSWNSGALTSGVHTFPAVLQSSGLYSLSSVVTVPSSSLGTQTYICNVNHKPSNTKVDKKVEPKSCDKTHTCPPCPAPELLDGPSVFLFPPKPKDTLMISRTPEVTCVVVDVEEEDPEVKFNWYVDGVEVHNAKTKPREEQYNSTYRVVSVLTVLHQDWLNGKEYKCKVSNKALPAPIEKTISKAKGQPREPQVYTLPPSREEMTKNQVSLTCLVKGFYPSDIAVEWESNGQPENNYKTTPPVLDSDGSFFLYSKLTVDKSRWQQGNVFSCSVMHEALHNHYTQKSLSLSPGK
light: B1 light
notes: HuAM4G7 IgG1 Fc variant
For B3, the “Fold FcγRIIaR” value with FcγRIIaR amounted to 29.9 fold. The binding result in experiment [1] was “no binding”. Besides, the “Fold FcγRI” value in experiment [2] amounted to 0.0902 fold. The “Fold FcγRIIaH” value in experiment [3] was 0.103 fold. For the same molecule, in experiment [4], the “Fold FcγRIIb” value was 110 fold.

B4: S267D (antibody, human IgG1, kappa)
heavy: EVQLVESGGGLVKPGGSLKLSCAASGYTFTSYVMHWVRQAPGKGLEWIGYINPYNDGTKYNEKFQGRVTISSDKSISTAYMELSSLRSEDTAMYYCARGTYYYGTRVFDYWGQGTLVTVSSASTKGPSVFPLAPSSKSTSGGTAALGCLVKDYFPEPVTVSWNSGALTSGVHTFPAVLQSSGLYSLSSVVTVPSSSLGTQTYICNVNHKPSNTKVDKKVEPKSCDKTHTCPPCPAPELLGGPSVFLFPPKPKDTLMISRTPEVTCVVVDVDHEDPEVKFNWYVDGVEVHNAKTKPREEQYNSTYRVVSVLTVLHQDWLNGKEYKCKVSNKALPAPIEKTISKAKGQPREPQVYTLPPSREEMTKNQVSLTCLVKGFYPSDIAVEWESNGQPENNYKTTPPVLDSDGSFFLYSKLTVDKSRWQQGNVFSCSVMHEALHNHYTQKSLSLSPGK
light: B1 light
notes: HuAM4G7 IgG1 Fc variant
As to B4, in the experiment with FcγRIIaR, the “Fold FcγRIIaR” value came to 8.99 fold. Moreover, the “Fold FcγRIIIaV” value in experiment [1] stood at 1.51 fold. Also, the “Fold FcγRI” value in experiment [2] is 2.11 fold. For the same molecule, the “Fold FcγRIIb” value in experiment [4] came out at 4.45 fold.

B5: S267A (antibody, human IgG1, kappa)
heavy: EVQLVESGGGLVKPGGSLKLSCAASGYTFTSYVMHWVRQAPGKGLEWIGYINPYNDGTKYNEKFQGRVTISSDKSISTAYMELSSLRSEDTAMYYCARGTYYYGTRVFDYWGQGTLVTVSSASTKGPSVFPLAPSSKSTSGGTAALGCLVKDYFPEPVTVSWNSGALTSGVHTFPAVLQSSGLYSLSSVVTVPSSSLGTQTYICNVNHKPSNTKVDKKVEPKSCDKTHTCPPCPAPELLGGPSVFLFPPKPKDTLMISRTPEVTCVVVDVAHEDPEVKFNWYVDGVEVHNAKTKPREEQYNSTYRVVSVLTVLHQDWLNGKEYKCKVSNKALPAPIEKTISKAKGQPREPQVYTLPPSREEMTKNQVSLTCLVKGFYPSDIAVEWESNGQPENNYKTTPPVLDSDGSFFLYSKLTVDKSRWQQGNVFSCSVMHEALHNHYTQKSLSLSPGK
light: B1 light
notes: HuAM4G7 IgG1 Fc variant
Consider B5, for which, in the experiment with FcγRIIaR, the “Fold FcγRIIaR” value stood at 4.29 fold. Also, the “Fold FcγRIIIaV” value in experiment [1] stood at 0.952 fold. In experiment [2], the “Fold FcγRI” value turned out to be 1.15 fold. Besides, in experiment [4], the “Fold FcγRIIb” value turned out to be 3.6 fold.

B6: G237N/S267E (antibody, human IgG1, kappa)
heavy: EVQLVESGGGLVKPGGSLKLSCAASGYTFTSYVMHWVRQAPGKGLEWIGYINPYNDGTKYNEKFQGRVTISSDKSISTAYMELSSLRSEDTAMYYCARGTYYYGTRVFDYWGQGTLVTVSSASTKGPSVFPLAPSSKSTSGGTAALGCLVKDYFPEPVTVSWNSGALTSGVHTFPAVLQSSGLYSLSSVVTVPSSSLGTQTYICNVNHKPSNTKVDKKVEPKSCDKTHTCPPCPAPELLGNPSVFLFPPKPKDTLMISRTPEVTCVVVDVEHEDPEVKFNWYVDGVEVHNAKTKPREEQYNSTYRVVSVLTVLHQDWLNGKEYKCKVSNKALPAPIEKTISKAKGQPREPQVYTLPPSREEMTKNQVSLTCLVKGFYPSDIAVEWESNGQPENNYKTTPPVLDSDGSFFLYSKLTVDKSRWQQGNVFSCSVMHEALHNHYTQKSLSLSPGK
light: B1 light
notes: HuAM4G7 IgG1 Fc variant
In the case of B6, the “Fold FcγRIIaR” value with FcγRIIaR amounted to 61.5 fold. Further, the binding result in experiment [1] is listed as “no binding”. In addition, the “Fold FcγRI” value in experiment [2] was 0.101 fold. In addition, the “Fold FcγRIIb” value in experiment [4] amounted to 40.5 fold.

B7: G236T (antibody, human IgG1, kappa)
heavy: not shown
light: B1 light
notes: HuAM4G7 IgG1 Fc variant
As for B7, the “Fold FcγRIIaR” value with FcγRIIaR is 0.35 fold. For the same molecule, in experiment [1], the binding result is reported as “no binding”. Further, in experiment [2], the “Fold FcγRI” value worked out at 0.0157 fold. In addition, in experiment [3], the “Fold FcγRIIaH” value came out at 0.486 fold.

B8: S239E (antibody, human IgG1, kappa)
heavy: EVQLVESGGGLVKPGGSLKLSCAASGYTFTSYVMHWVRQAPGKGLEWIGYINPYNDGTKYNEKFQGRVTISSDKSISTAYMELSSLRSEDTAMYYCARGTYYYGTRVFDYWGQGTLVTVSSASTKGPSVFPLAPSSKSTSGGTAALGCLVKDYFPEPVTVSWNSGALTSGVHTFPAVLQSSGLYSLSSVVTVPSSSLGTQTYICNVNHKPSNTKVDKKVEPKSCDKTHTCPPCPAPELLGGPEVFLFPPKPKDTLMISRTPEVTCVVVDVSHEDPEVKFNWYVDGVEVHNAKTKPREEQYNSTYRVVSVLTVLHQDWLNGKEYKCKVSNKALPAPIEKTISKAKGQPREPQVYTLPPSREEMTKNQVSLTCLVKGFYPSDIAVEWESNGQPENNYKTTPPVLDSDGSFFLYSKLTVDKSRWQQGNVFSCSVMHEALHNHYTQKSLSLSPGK
light: B1 light
notes: HuAM4G7 IgG1 Fc variant
As to B8, the “Fold FcγRIIaR” value in the experiment with FcγRIIaR came to 0.688 fold. In addition, the “Fold FcγRIIIaV” value in experiment [1] was 3.49 fold. Moreover, the “Fold FcγRI” value in experiment [2] turned out to be 1.65 fold. Moreover, the “Fold FcγRIIb” value in experiment [4] amounted to 0.803 fold.

B9: anti-CD19 antibody HuAM4G7 IgG1 Fc variant S239D/S267E (antibody)
heavy: not shown
light: B1 light
notes: Positions are EU numbers, not positions on the UniProt entry; copies: 2 + 2
B9: the “Fold FcγRIIaR” value with FcγRIIaR worked out at 120 fold. For the same molecule, the “Fold FcγRIIIaV” value in experiment [1] was found to be 3.74 fold. Also, the “Fold FcγRI” value in experiment [2] is 23.2 fold. In experiment [4], the “Fold FcγRIIb” value was 111 fold.

B10: G236D/S239D/S267E (antibody, human IgG1, kappa)
heavy: B3 heavy with S243D, E272H
light: B1 light
notes: HuAM4G7 IgG1 Fc variant
On to B10, for which the “Fold FcγRIIaR” value with FcγRIIaR was determined as 26.7 fold. Moreover, the binding result in experiment [1] is recorded as “no binding”. In addition, in experiment [2], the “Fold FcγRI” value was 0.0685 fold. In experiment [3], the “Fold FcγRIIaH” value turned out to be 0.217 fold. In experiment [4], the “Fold FcγRIIb” value came to 84.8 fold.

B11: A327N (antibody, human IgG1, kappa)
heavy: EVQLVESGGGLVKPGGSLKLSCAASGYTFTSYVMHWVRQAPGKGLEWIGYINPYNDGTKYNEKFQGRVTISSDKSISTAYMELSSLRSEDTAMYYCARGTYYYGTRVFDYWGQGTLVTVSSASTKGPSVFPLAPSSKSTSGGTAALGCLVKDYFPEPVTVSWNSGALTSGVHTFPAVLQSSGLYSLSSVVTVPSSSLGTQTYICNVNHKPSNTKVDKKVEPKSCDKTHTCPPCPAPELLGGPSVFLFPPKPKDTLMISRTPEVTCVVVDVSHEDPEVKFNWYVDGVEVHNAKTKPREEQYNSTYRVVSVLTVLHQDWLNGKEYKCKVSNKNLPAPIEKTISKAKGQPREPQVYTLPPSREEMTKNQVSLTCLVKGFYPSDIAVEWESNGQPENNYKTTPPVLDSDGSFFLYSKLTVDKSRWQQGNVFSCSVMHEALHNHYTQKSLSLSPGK
light: B1 light
notes: HuAM4G7 IgG1 Fc variant
On to B11, for which the “Fold FcγRIIaR” value in the experiment with FcγRIIaR amounted to 0.609 fold. For the same molecule, the binding result in experiment [1] and in experiment [3] was “no binding” each time. In experiment [2], the “Fold FcγRI” value amounted to 0.0279 fold. For the same molecule, the “Fold FcγRIIb” value in experiment [4] came out at 0.843 fold.

B12: L234D/S267E (antibody, human IgG1, kappa)
heavy: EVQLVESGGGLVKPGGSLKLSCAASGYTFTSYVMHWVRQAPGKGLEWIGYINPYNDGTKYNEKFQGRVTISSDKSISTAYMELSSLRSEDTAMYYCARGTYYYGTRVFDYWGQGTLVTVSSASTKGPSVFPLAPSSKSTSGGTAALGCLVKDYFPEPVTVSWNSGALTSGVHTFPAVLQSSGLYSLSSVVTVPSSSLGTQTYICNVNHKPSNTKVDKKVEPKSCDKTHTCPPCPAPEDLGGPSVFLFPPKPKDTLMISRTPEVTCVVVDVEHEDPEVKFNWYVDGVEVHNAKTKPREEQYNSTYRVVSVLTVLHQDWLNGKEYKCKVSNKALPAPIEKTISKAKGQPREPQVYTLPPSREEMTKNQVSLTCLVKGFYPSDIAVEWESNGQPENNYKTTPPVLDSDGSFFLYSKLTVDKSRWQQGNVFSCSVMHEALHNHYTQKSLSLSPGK
light: B1 light
notes: HuAM4G7 IgG1 Fc variant
Turning to B12, the “Fold FcγRIIaR” value in the experiment with FcγRIIaR was determined as 12.7 fold. In addition, the “Fold FcγRIIIaV” value in experiment [1] was 0.14 fold. Further, the “Fold FcγRI” value in experiment [2] was found to be 0.0286 fold. The “Fold FcγRIIb” value in experiment [4] was 21.7 fold.

B13: S267E/H268E/L328F (antibody, human IgG1, kappa)
heavy: B3 heavy with D240G, L332F
light: B1 light
notes: HuAM4G7 IgG1 Fc variant
Consider B13, for which the “Fold FcγRIIaR” value in the experiment with FcγRIIaR was found to be 253 fold. Besides, the “Fold FcγRI” value in experiment [2] stood at 0.991 fold. Besides, in experiment [4], the “Fold FcγRIIb” value was found to be 344 fold.

B14: G236S (antibody, human IgG1, kappa)
heavy: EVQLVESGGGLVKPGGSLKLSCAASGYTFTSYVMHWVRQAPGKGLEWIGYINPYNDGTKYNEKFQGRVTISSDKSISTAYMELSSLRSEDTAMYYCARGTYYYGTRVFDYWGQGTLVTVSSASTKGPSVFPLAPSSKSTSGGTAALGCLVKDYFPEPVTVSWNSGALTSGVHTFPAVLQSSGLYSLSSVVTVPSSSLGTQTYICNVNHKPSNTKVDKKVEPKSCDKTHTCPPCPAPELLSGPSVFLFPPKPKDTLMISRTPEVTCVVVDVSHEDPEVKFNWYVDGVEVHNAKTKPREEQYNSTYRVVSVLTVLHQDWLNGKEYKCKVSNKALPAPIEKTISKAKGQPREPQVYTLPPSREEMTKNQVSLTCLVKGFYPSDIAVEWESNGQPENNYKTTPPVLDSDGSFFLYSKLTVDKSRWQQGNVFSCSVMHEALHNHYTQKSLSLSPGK
light: B1 light
notes: HuAM4G7 IgG1 Fc variant
Take B14: the “Fold FcγRIIaR” value with FcγRIIaR is 2.33 fold. Moreover, in experiment [2], the “Fold FcγRI” value worked out at 0.0268 fold. In addition, the “Fold FcγRIIaH” value in experiment [3] turned out to be 3.76 fold. Further, the “Fold FcγRIIb” value in experiment [4] turned out to be 1.02 fold.

B15: V266M (antibody, human IgG1, kappa)
heavy: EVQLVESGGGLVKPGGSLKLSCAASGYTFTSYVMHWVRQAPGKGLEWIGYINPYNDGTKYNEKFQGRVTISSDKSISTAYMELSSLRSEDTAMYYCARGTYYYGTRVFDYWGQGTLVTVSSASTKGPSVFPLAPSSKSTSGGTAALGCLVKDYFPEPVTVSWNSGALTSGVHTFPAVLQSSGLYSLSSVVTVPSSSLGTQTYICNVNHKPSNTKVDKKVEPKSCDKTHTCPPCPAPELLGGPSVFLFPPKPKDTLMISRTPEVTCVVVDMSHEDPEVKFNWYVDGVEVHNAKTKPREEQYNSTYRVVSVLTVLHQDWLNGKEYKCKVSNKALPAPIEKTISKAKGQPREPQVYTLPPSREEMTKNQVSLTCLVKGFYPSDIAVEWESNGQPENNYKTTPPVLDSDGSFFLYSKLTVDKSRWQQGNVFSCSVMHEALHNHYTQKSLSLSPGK
light: B1 light
notes: HuAM4G7 IgG1 Fc variant
As to B15, the “Fold FcγRIIaR” value with FcγRIIaR was 3.13 fold. The “Fold FcγRIIIaV” value in experiment [1] came to 0.547 fold. Also, the “Fold FcγRI” value in experiment [2] worked out at 1.25 fold. Besides, the “Fold FcγRIIb” value in experiment [4] was found to be 1.91 fold.

B16: S239D/S267E/L328F (antibody, human IgG1, kappa)
heavy: B3 heavy with D240G, S243D, E272H, L332F
light: B1 light
notes: HuAM4G7 IgG1 Fc variant
As to B16, the “Fold FcγRIIaR” value in the experiment with FcγRIIaR is 416 fold. For the same molecule, the “Fold FcγRIIIaV” value in experiment [1] worked out at 0.216 fold. Also, the “Fold FcγRI” value in experiment [2] is 1.45 fold. Also, the “Fold FcγRIIb” value in experiment [4] was 428 fold.
